# Reference: the DeepSol protein solubility set
# Assay: soluble on expression in E. coli; label from the status in PepcDB or PDB records
row,Sequence,soluble on expression in E. coli
1,MSLDLFDRKAAADTLKEAPLAERMRPRTLAEYVGQEHLLGPGKLLRQLIETDQLTSLIFWGPPGSGKTTLARIIAGATKSHFIFFSAILSGIKEIREIVKEADDIRKFHGKRTILFVDEIHRFNKSQQDAFLPYVERGVFTIIGATTENPSFEVIAPLLSRCKVLVLNPLTEEEITGILRQALADKERGLGALDLAIEDDALTFMAEQAGGDARVALNTLETASRLTSNGVVSLDTAREAVQKKPLLYDKGGEEHYNVISAFIKSMRGSDPDGALYWLARMIEAGEDPIFILRRMVILASEDIGNADPRALQVAVTALQGFQLVGMPEGRIIIGQAVTYLATAPKSNASYVGIDAALAEVRKSGALPVPLHIRNAPTRLMKDLGYGTGYRYAHDYAEGYVAQDYLPDQIKGRKYYDPTGHGYEKSIKERMEWLKGKKEGHHHHHH,soluble
2,MVIMSSTFMGYERENGRIGTRNHVLIIPVDDLSNTVAAAVENNIFGTRAILHPYGRLQFGADLDLTFRTLAGYGRNPNVASAIVVGIEDNWTNRIADQISQTGKHVETVSIEGSGDLKAIEKASRLAKEMAQESSTKTRKEFDVSNLIVSTKCGESDTTSGLASNPTVGVVFDRLVDEGATVIFGETSELTGAEKYIAEKMANNELKDKFMKIFNDYQDVIKSQGVDLLGSQPTEGNIKGGLSTIEEKALGNIQKAGTKKITGVLDYAEEPKSKGLNFMNTSSAAAEAVTLFAAAGAVVHLFTTGQGNIVGNHILPVIKTTANPKTAKNMAEHIDLDLSGLLKFEYTLKDAGDKLYNLLLETASGKLTSNEVLKHYEFALTKLYISA,not soluble
3,MLRWIVLICISLFLPLSAYADKSDCINHHCIAVIDAGSSSSRLHIYAYDLDETNTPIAIREIWNRKAVPGLPTIEHENKSVSAYMEKLFSDAPAVLMPVYFYSTAGMRLLPKTHHRNVNQLVAEWFDRQYYWRLVTARTISGTEEGIFAWLATNYQLNLFQQEPQTLAGVMDIGGASVQIVIPVVNPSFMDHEHTTTIRLYGKEFTVFSHSFLGLGQNEMGHQFFDLKFCFPEEYELPSGRQARGDAYACKDEIAILVNSVHSVSRKIKSVLAANPIEKWYILGGITFMLNDKLFSLDNQYFTNRDLISYADQNICHQKWSTLEVLYPDNLMVFNYCMLPSYLYALLVHGYGLKSYQKVNFMPNSKNIDWTLGVVLQHKQSAAALEHHHHHH,not soluble
4,MGSDKIHHHHHHISNNLANSSTIGYKTSNASFYSLVTGTGSTSNFTGAGVVASATQNVINQGVIVGTQNVTDLAVDGKGMFIVTDRSGSNELYYTRAGDFYPNADGDLVNSNNYYLQGYPTDRNGVPLTNTGNSGASLETINLAGATGAAKATSEMSIQAVLPAQATAGDSTAVPPVAAYTSSSDVEIYDSLGVAHTMTVKWTKMSDTKWTMTLYDPKLSSDMTGDATGAISSTTTGVTDVPANAGPPATSHGIAVDVEFTDQGLLKTPSVLALKITPDASNGTGAAISEIALNLGTAGKANGLSTYSNEDSDGKPAVDLKKVVQDGVTYGTYYSNTISKAGLVYANFTNGISYPIYQVPLAMFSNVNGLEAVSGTAYSATVKSGTPTYVTAGTGGSGGVSSGSVESSTVDTAAEFSKLIVSQQAYSAATQIISSNQEMFQNLISAKR,not soluble
5,MVKLAEFSRTATFAWSHDKIPLLVSGTVSGTVDANFSTDSSLELWSLLAADSEKPIASLQVDSKFNDLDWSHNNKIIAGALDNGSLELYSTNEANNAINSMARFSNHSSSVKTVKFNAKQDNVLASGGNNGEIFIWDMNKCTESPSNYTPLTPGQSMSSVDEVISLAWNQSLAHVFASAGSSNFASIWDLKAKKEVIHLSYTSPNSGIKQQLSVVEWHPKNSTRVATATGSDNDPSILIWDLRNANTPLQTLNQGHQKGILSLDWCHQDEHLLLSSGRDNTVLLWNPESAEQLSQFPARGNWCFKTKFAPEAPDLFACASFDNKIEVQTLQNLTNTLDEQETETKQQESETDFWNNVSREESKEKPSVFHLQAPTWYGEPSPAAHWAFGGKLVQITPDGKGVSITNPKISG,soluble
6,MFRMPIVTMERVDSFSAAHRLHSEKLSDAENKETFGKCNNSNGHGHNYVWKVKLRGEVDPTSGMVYDLAKLKKEMSLVLDTVDHRNLDKDVEFFKTTVSTSENVAIYMFEKLKSVMSNPSVLYKVTIEETPKNIFTYKGS,soluble
7,MGSDKIHHHHHHLSFIIRKALLTDVAAIVQLERAHVDDELLGSNSQLHAHSFTKSEVSQLINQHWFIVAEEQGVIIGYVMAAKWSFFSAQPLYRHIIQKLKFADLQGQALSTTNTCQYGPVWIQESKRGQGVFSALVTELKKQVADTFPFMVTYVAADNARSLAAHQQKAAMTEIDQFSFEQRDYCLLATTNIT,not soluble
8,MGSDKIHHHHHHMERFCCVNQINYIQMNPLEAKFKTSALRSWKTDQADAHKLACLGPTLKQTDNLPIHELIFFELRERVRFHLEIENEQNRLKFQILELLHQTFPGLERLFSSRYSIIALNIAEIFTHPDMVLDIDKEVLITHIFNSTDKGMSMDKATKYALQLRVIAQESYPNVDRHSFLVEKLRLLIQQLKQSIHHPKQLDDAMIQLAQQLDYFENIHSIPGIGKLSTAMIIGEIGDIKRFKSNKQLNAFVGIDIKRYQSGHTHCRDTINKRGNKKARKLLFWVIMNIIRGQHHYDNHVVDYYYKLRKQPNEKPHKTAIIACINRLLKTIHYLVMNHKLYDYQMSPH,not soluble
9,MLNSAPSETEKSETEGSETKESNLVIEDEEERKECTSVKKTEGHFTRQVDQVTKYDKDYIWSLVHSQLREGGLSQAASDLVMSYFEERYAYALEHIRFARTAEAIAEYVFNGVLSEWTKQLR,not soluble
10,GPGSMNIRQRKSERHKEVLRKLSQNGGNKNCFDCGMRGPLYVVSDFGILVCSGCSAVHRSFQHKVKGITMSEFTDDEIARFSVSGNDRARKVWLSTFHDQLPRSGNVMALKDHVHVVFEERRFWSAQELSA,soluble
11,MKKYTCTVCGYIYNPEDGDPDNGVNPGTDFKDIPDDWVCPLCGGGKDQFEEVEE,soluble
12,MVKSQPILRYILRGIPAIAVAVLLSACSTTTNTAKNMHSETHAVGNSDSSSLQASQDEFENMVRNLDVKSRIMDQYADWKGVRYRLGGSTKKGVDCSSFVQRTFREQFGLELPRSTYEQQEMGKAVSRNNLRTGDLVLFRAGSTGRHVGIYIGNNQFVHASTSSGVIISSMNEPYWKKRYNEARRVLSRS,not soluble
13,MSLAKALSLMLAQLNLTVGAIEDNCDKVLAAAAEADRQGADLLVCSELALTGYPPEDLLLRVDLMIRVEAALARLAAWQGACAILVGHPWRDGEALYNAASLYEQGKLVARYFKQDLPNYGVFDEKRYFTAATETCVVPFRGHQLGLLICEDLWQPGPALAAKAAGAELLLTINASPYDQEKPWIRRELMAERCDQTGLPLVYLNQVCGQDELIFDGCSKVFNSQGELTHKLAPFAEELALVRFADGQPVKEREPAAPLEPLAETYQALVLAVRDYVTKNGFHGAVLGLSGGIDSALTLAIAADAIGADKVQAVMMPFRYTAQMSVEDAKEQAERMGVEFNIISIEPMFEGFMAQLAPLFEGTARDTTEENLQARCRGVLLMALSNKRRCIVLTTGNKSEMAVGYATLYGDMAGGFDVLKDVPKTLVFKLCEYRNSVDYVIPQRVIDRPPSAELAPDQVDQDSLPPYDILDAILKRYVEEDASVADMVAEGFEEAVVRKVIRLVDLNEYKRRQAAVGPRITARNFGKDRRYPITSGFGKQNWEGHHHHHH,soluble
14,MGHHHHHHSHMSGTEEAILGGRDSHPAAGGGSVLCFGQCQYTAEEYQAIQKALRQRLGPEYISSRMAGGGQKVCYIEGHRVINLANEMFGYNGWAHSITQQNVDFVDLNNGKFYVGVCAFVRVQLKDGSYHEDVGYGVSEGLKSKALSLEKARKEAVTDGLKRALRLPLLGVSGRILYSLFSVHSVMCAGGLPTPTASAQTAPSSPCSSAVLRYAQEFWECTWKLYSGQRLPEITK,not soluble
15,MNVNIDSEQLFTEEKPKDYAQPEVLCHTFELLSNLHKLLPNRTVEVLHSYRSEEDKRKCEKPEFSGIEKILARHQLPKEINLSPKPSHVPSWKRKIINNISGNWKKCRLWQKSIYEPPMGTIIVRWTKKNLQPSEDLKSVIQRLSALGPIISVTPCGRESAVVVFRDAASACKAVSAFQTMSADSMFHCSWQHRFMSKNKTWSRRYPSKIHAEKKEKHP,not soluble
16,MIMQEIFLCSISNVRSGDCKEDCAYCTQSSHHQGAIKRYKFKDEKVVLQEARALRQLGALGFCLVTSGRELDDEKCEYIAKLAKAINQEELGLHLIACCGRADLEQLEFLRDAGIHSYNHNLETSQNFFPKICSTHTWEERFITCENALRAGLGLCSGGIFGLNESWEDRIEMLRALASLSPHTTPINFFIKNPVLPIDAETLSADEALECVLLAKEFLPNARLMVAGGREVVFKDNDKKEAKLFEYGINAVVLGDYLTTKGKAPKKDIEKLLSYGLTMATSCHLEHHHHHH,not soluble
17,GMWQFPLFETILIEQGQAKNISYHQQRYEKSLLKFYPKMKLQPFDLAKIIAKHTALFTHREGLIRCRIDYNHHDYVLQCFPYQQKVYRTFKPVFCDHIDYSLKFSDRTLLNNLLKQKEECDEIMIIRQGKVTDCSIGNLIFRQNNQWITPDKPLLEGTQRAKLLEQKKIIAREIFFEDLAQYEEIRLINAMNGL,soluble
18,MTSLSVNDRKDFVDGQMKYWRQIAESDGFDIDDVPVPRGTRAGLWSVDCKHPRFRLRACLPKIYAMVGLHRYNLLRGTNFEHLELLKYNESMNCVCSYYITSVAVDLSSQLQKTFQIRVDEKSFGDLDLTVSVARPNDEEKVTTEKRFIHHFHCEAAADDFYKGALPDWPSVGDLNNQKRFYMVKKCELQSNDWIRLYLELAVGVRYQQTSESDLSKLQVLKVAIETKEEDVQPPNRRLKSKSLHVYITFKGLAKAPIGDEIGEHVERKAIVRRVIDERSGHLTLLGGFSNAKNDLNQSSDDEQPFGKRRRI,soluble
19,GHMLVMRPAQAADLPQVQRLAADSPVGVTSLPDDAERLRDKILASEASFAAEVSYNGEESYFFVLEDSASGELVGCSAIVASAGFSEPFYSFRNETFVHASRSLSIHNKIHVLSLCHDLTGNSLLTSFYVQRDLVQSVYAELNSRGRLLFMASHPERFADAVVVEIVGYSDEQGESPFWNAVGRNFFDLNYIEAEKLSGLKSRTFLAELMPHYPIYVPLLPDAAQESMGQVHPRAQITFDILMREGFETDNYIDIFDGGPTLHARTSGIRSIAQSRVVPVKIGEAPKSGRPYLVTNGQLQDFRAVVLDLDWAPGKPVALSVEAAEALGVGEGASVRLVAVGS,soluble
20,MGSDKIHHHHHHAQTPVEKGLKSINRQAAEAYIGFLADDELQGREAGFHGSRVAARYIASLLKEMGIRPLGESYYQPFDAYRKERQQKGRLEVHPDSIAKLKQVVHQKLSMNNVLGMIPGKKTNEYVIVGAHFDHLGIDPALDGDQIYNGADDNASGVSAVLQIAKAFVVSGQQPERNVIFAFWDGEEKGLLGSKYFVQECPFINQVKGYLNFDMIGRNNQPQNPKHVVYFYTEANPAFGRWLKEDIKKYGLQLEPNYRPWDKPVGGSDNGSFAKAGIPIIWYHTDGHPDYHQPSDHADRLNWDKVVEISKASFLNVWNLANEKDY,not soluble
21,QLTPTFYRETCPNLFPIVFGVIFDASFTDPRIGASLMRLHFHDCFVQGCDGSVLLNNTDTIESEQDALPNINSIRGLDVVNDIKTAVENSCPDTVSCADILAIAAEIASVLGGGPGWPVPLGRRDSLTANRTLANQNLPAPFFNLTQLKASFAVQGLNTLDLVTLSGGHTFGRARCSTFINRLYNFSNTGNPDPTLNTTYLEVLRARCPQNATGDNLTNLDLSTPDQFDNRYYSNLLQLNGLLQSDQELFSTPGADTIPIVNSFSSNQNTFFSNFRVSMIKMGNIGVLTGDEGEIRLQCNFVNG,soluble
